Measured values taken from patent US9745384B2, “Peptides useful for modulating histone demethylase function” (The Brigham and Women's Hospital, Inc., priority 2012, dated 2017).

How the values were obtained:
LSD1 = LSD1 (Homo sapiens, UniProt O60341); assay: LSD1-mediated nucleosome demethylation assay; type: biochemical; conditions: 2 μg LSD1 with 5 μg cofactor protein
Description: FIG. 7A depicts the determination of the threshold dosage of purified LSD2 required for nucleosomal H3K4 demethylation. 2 μg of nucleosomes purified from HeLa were incubated with various amount of His-LSD2 proteins for 2 hours at 30° C. The demethylation reactions were analyzed by immunoblotting using indicated antibodies. […] 2 μg LSD1 in combination with 5 μg purified NPAC or CoREST protein was used for histone demethylase assays. […] Transfected cells are marked by arrows; cells shown significant reduction of H3K4me1 are marked by dotted circles. […] In contrast, coexpression of LSD2 and NPAC induces obvious global decrease of H3K4me1. […] FIG. 7D depicts immunofluorescence analyses of H3K9me2 demethylation in cells coexpressing LSD2 and full-length NPAC.

LSD2 = molecular target: T1, LSD2 (Homo sapiens, UniProt Q8NB78); assay: H3K4me2 peptide demethylation assay (MALDI-TOF); type: biochemical; conditions: shorter H3K4me2 peptide residues 1-15
T1 construct: 0.15 μM or 1.2 μM purified LSD2 (residues 51-822); His6 (cleaved yes); made in house; host or cells: Sf9 insect cells (baculovirus)
T1 sequence (Q8NB78 51-822): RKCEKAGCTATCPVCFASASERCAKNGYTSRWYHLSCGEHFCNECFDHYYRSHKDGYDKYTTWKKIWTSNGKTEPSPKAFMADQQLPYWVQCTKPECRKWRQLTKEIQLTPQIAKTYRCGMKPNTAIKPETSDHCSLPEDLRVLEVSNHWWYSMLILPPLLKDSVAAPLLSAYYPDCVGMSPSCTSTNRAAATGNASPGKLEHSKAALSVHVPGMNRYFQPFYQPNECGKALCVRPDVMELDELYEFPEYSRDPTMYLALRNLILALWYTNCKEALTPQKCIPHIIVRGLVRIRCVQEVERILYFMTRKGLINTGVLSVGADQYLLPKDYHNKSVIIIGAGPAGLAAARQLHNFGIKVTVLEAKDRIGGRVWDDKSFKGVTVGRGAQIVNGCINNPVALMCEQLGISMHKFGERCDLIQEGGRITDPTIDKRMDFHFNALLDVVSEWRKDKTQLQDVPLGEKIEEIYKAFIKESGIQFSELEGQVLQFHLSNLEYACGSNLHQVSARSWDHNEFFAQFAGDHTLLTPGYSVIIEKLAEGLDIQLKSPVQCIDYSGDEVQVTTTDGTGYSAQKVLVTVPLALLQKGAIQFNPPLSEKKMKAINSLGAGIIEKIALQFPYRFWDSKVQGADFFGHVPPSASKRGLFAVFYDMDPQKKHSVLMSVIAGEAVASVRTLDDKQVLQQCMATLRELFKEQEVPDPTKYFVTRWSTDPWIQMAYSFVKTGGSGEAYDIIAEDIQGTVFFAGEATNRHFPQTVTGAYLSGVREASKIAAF
Description: FIGS. 12A-12F depict analysis of LSD2 demethylation activity and mutational analysis. […] Demethylation products were analyzed by MALDI-TOF mass spectrometry. 0.15 μM LSD2 can efficiently demethylate the longer H3K4me2 peptide (1-21), but has no detectable activity on the shorter histone peptide (1-15), demethylation of which requires high concentration (1.2 μM) of LSD2. […] It indicates the importance of histone residue 16-21 to LSD2 enzymatic activity and NPAC cofactor activity, supporting our model that NPAC assists enzyme-substrate interactions by creating a new binding site for H3 L20 in the LSD2-NPAC complex. FIG. 12C depicts LSD2 demethylation and NPAC cofactor activity on longer H3K4me2 peptide (1-44). 2 μg H3K4me2 peptide (1-44) were incubated with 0.8 μg GST-LSD2 (1-822) and 2 μg wild-type or F217A full-length GST-NPAC proteins in 100 μl demethylation buffer (50 mM Tris-HCl pH 8.1, 1 mM NAD^+, 0.1 Unit formaldehyde dehydrogenase) at 30° C. for 2 hours. LSD2 alone can efficiently demethylate di-methyl H3K4 of the long peptides, converting large majority of the substrate to H3K4me1. Wild-type NPAC protein can efficiently stimulate LSD2 demethylation, producing unmethylated H3K4. F217A mutation impairs NPAC cofactor activity as expected, showing little stimulatory effect if any. To compare demethylation efficiency, 1.2 μg bio-H3K4me2 peptide (H3 residue 1-21, equal molar ratio to 2 ug H3K4me2 1-44 peptide in above assays) was demethylated by LSD2 under identical conditions (bottom panel). […] The cofactor activity of wild-type NPAC was readily detected under the same conditions. […] Importantly, the demethylation of nucleosomal H3K4me2 was much more efficient in the presence of wild-type NPAC under same conditions (comparing lane 3 verse 4, and 8 verse 9). It is noted that no obvious cofactor effect of F217A peptide or linker regions was detected in nucleosome and peptide demethylation assays (FIG. 6E and data not shown). FIG. 12F depicts Coomassie staining of NPAC proteins used in histone demethylase assays. FIG. 12F discloses “His6” as SEQ ID NO: 75.
Histone peptides are purchased from Millipore, or custom synthesized. The purity of all peptides are >95% as determined by HPLC and mass spectrometry. In vitro histone demethylase activity assays were performed as described (Shi et al., 2004). Briefly, purified LSD2 and NPAC derived peptides or proteins were incubated with 50 μM H3K4me2 peptides (residues 1-21) in 50 mM Tris-HCl, pH 8.5, 50 mM KCl, 5 mM MgCl2, 5% glycerol at 37° C. for 30 min. The products were desalted through a C18 Ziptip (Millipore) and analyzed on a MALDI-TOF micro MX mass spectrometer (ABI 4700, Applied Biosystems). The laser intensity was kept constant for all of the samples. All MS data were processed using Data Explorer 4.5 (Applied Biosystems). […]

B1: NPAC: full-length human NPAC/GLYR1 (protein ID: Q49A26), recombinant, LSD2 cofactor (protein)
chain: MAAVSLRLGDLVWGKLGRYPPWPGKIVNPPKDLKKPRGKKCFFVKFFGTEDHAWIKVEQLKPYHAHKEEMIKINKGKRFQQAVDAVEEFLRRAKGKDQTSSHNSSDDKNRRNSSEERSRPNSGDEKRKLSLSEGKVKKNMGEGKKRVSSGSSERGSKSPLKRAQEQSPRKRGRPPKDEKDLTIPESSTVKGMMAGPMAAFKWQPTASEPVKDADPHFHHFLLSQTEKPAVCYQAITKKLKICEEETGSTSIQAADSTAVNGSITPTDKKIGFLGLGLMGSGIVSNLLKMGHTVTVWNRTAEKCDLFIQEGARLGRTPAEVVSTCDITFACVSDPKAAKDLVLGPSGVLQGIRPGKCYVDMSTVDADTVTELAQVIVSRGGRFLEAPVSGNQQLSNDGMLVILAAGDRGLYEDCSSCFQAMGKTSFFLGEVGNAAKMMLIVNMVQGSFMATIAEGLTLAHVTGQSQQTLLDILNQGQLASIFLDQKCQNILQGNFKPDFYLKYIQKDLRLAIALGDAVNHPTPMAAAANEVYKRAKALDQSDNDMSAVYRAYIH
LSD1
  Stimulation of LSD1 nucleosome demethylation: no stimulatory effect on nucleosome demethylation by LSD1
LSD2
  Cofactor activity: stimulation of LSD2 demethylation of H3K4me2 peptide: did not detect NPAC cofactor activity
